Molecular target: RSC complex (budding yeast (S. cerevisiae) (endogenous in BJ3505)) (UniProt P32597)
Experiment: BLI

Chain of UniProt P32597 (P32597 whole entry, looked up, one chain of several): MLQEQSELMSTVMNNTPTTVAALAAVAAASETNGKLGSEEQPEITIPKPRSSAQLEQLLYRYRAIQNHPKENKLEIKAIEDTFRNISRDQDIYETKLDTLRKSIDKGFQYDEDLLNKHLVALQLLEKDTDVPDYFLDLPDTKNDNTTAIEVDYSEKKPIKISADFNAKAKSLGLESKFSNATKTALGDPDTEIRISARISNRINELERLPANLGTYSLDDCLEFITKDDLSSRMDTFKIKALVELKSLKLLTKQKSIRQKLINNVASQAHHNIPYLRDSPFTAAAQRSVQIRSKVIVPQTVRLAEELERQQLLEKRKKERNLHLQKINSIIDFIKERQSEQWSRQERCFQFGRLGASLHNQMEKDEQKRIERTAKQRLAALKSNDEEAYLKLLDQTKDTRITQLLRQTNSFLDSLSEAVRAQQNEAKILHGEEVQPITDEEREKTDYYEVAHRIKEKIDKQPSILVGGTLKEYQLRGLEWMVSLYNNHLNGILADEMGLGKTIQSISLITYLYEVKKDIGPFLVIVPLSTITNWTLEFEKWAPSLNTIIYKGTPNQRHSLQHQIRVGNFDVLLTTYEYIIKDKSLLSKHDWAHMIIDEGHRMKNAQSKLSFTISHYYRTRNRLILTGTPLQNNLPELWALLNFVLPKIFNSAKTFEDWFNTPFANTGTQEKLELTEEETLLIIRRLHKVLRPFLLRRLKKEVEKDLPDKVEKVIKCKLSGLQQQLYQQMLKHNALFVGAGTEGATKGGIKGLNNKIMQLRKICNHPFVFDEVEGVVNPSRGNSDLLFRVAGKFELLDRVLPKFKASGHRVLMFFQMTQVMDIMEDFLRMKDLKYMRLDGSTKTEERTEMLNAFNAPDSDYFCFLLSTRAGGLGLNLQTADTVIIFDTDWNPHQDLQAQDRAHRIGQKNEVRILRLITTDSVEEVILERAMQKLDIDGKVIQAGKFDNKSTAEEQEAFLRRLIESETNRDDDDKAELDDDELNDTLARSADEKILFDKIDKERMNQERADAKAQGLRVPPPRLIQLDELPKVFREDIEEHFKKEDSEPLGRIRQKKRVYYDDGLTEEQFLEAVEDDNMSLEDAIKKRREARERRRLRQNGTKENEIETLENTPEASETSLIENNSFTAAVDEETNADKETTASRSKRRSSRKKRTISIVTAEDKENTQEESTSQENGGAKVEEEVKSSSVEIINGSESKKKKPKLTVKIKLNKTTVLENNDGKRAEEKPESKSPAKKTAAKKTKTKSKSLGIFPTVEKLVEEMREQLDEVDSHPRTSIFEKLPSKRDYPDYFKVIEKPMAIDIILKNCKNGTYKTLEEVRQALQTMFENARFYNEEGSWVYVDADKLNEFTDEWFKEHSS

Substance: SUMOylated nucleosome core particles (from UniProt P68431 1-136; P62805 1-103; P04908 1-130; P02281 6-126) (complex)
- fold affinity against unmodified NCPs: 2 fold

Source: paper doi:10.1101/2020.03.02.972562
